# Results taken from patent US20160175358A1.
# Target: δ1 TCR on δ1 T-cells in PBMCs (human) (UniProt O00548)
# Assay: cell-based or functional assay
# UniProt O00548, sequence (O00548 18-723, stated change not applied): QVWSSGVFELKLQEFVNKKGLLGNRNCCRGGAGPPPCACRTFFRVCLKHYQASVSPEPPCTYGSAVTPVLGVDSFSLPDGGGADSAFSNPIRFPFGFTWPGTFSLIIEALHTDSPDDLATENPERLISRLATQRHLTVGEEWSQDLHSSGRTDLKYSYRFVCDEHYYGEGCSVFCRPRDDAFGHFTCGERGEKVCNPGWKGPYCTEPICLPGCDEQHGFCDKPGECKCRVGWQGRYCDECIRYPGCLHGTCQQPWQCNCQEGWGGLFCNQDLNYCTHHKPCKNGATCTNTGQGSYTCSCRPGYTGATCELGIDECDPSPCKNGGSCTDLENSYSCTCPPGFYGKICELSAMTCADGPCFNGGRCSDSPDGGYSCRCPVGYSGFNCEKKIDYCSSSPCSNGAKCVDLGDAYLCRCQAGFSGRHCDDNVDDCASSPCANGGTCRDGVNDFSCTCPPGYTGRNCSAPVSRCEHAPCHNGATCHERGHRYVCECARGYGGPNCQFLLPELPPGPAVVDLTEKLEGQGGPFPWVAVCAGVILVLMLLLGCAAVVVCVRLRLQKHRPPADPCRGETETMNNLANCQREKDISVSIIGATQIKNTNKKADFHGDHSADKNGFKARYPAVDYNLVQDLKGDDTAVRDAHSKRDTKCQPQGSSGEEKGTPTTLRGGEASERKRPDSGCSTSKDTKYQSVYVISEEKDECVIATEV
substance,measurement,value
anti-TCR Vδ1 TS-1 antibody,"induced proliferation, relative to TS8.2",3 fold
